Experimental data reported in patent US20180258158A1 (Bristol-Myers Squibb, published 2018).

B1: ADX_6734_A02 (I43A/Y44E) (designed binder)
chain: MGVSDVPRDLEVVAATPTSLLISWDAPAVTVRYYRITYGREVQKYSDLGPLYAEQEFTVPGSKSTATISGLKPGVDYTITVYAVTGSGESPASSKPISINYRTEIDKPSQHHHHHH
B2: ADX_7016_A01 (parent PKE2 Adnectin) (designed binder)
chain: MGVSDVPRDLEVVAATPTSLLISWDAPAVTVRYYRITYGREVQKYSDLGPLYIYQEFTVPGSKSTATISGLKPGVDYTITVYAVTGSGESPASSKPISINYRTEIDKPSQHHHHHH
notes: N-terminal Met may be cleaved; also called 2629_E06; ADX_2629_E06
B3: ADX_7016_G01 (Y44S) (designed binder)
chain: MGVSDVPRDLEVVAATPTSLLISWDAPAVTVRYYRITYGREVQKYSDLGPLYISQEFTVPGSKSTATISGLKPGVDYTITVYAVTGSGESPASSKPISINYRTEIDKPSQHHHHHH
notes: Full His6-tagged entry; also called 6727_G02
B4: ADX_7016_E02 (L38T) (designed binder)
chain: MGVSDVPRDLEVVAATPTSLLISWDAPAVTVRYYRITYGREVQKYSDTGPLYIYQEFTVPGSKSTATISGLKPGVDYTITVYAVTGSGESPASSKPISINYRTEIDKPSQHHHHHH
notes: Full His6-tagged entry; also called 6727_E08

What was measured:
[1] = molecular target: T1, mouse serum albumin (MSA), full length (mouse, UniProt P07724 25-608); assay: direct binding ELISA, coated MSA, anti-His-HRP; parameters: unit not given here
T1 construct: mature; Immobilized on CM5 chip (SPR) or coated on plates (ELISA); also called mouse albumin; murine serum albumin
Target sequence in this assay (P07724 25-608): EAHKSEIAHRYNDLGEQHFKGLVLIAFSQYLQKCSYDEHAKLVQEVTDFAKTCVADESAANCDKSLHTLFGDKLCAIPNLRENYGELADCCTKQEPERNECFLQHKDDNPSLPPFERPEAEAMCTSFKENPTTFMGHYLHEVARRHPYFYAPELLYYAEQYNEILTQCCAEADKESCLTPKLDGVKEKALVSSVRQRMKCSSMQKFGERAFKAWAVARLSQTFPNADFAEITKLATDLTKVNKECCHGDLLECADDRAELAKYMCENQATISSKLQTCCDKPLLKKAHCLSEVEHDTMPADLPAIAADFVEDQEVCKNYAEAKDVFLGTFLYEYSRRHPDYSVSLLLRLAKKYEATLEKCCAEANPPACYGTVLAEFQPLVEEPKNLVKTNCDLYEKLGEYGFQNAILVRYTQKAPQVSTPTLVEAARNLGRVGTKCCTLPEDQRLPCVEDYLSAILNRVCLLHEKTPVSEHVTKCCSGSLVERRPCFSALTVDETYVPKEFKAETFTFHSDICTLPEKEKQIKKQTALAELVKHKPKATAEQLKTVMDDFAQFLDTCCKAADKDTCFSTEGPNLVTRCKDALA

[2] = molecular target: T2, human serum albumin (HSA), full length (human, UniProt P02768 25-609); assay: not stated; lower end of the range 3-6 nM
T2 construct: mature; Immobilized on CM5 chip (SPR) or coated on plates (ELISA)

[3] = molecular target: T2, human serum albumin (HSA), full length; assay: not stated; upper end of the range 3-6 nM
[4] = molecular target: T2, human serum albumin (HSA), full length; assay: SPR, immobilized HSA, 500 nM Adnectin, 25 C
Protocol: (§1) Measurements were conducted by SPR and ELISA. SPR was conducted as follows. Full length HSA or mouse albumin was immobilized on a Biacore T series CM5 chip at 15 ug/mL in 10 mM acetate buffer (pH 5.0) buffer using standard NHS/EDC coupling, to a surface density of approximately 1000-1100 RU. For off-rate measurements at 25° C., PKE Adnectins were applied as analytes at 500 nM in HBS-P+(0.01 M HEPES pH 7.4, 0.15 M NaCl, 0.005% v/v Surfactant P20) running buffer at a flow rate of 20ul/min for 120 s over the immobilized albumins, followed by 800 s for dissociation. […] Regeneration of the chip surface between cycles was accomplished with two 30 second pulses of 10 mM Glycine, pH 2.0. Kinetic traces of reference-subtracted sensorgrams were fit to a 1:1 binding model for affinity using the Biaevaluation software. Only the dissociation phase was fit for determination of off-rates.

[5] = molecular target: T1, mouse serum albumin (MSA), full length; assay: SPR, immobilized MSA, 500 nM Adnectin, 25 C
Protocol: as §1

[6] = molecular target: T2, human serum albumin (HSA), full length; assay: SPR kinetics, immobilized albumin, 1:1 fit, 37 C
Protocol: as §1, with “The SPR” for “Measurements were conducted by SPR and ELISA. SPR”, “length human, mouse, rat and cynomolgus monkey serum” for “length HSA or mouse”, “albumin were” for “albumin was”

[7] = molecular target: T1, mouse serum albumin (MSA), full length; assay: SPR kinetics, immobilized albumin, 1:1 fit, 37 C
Protocol: as §1, with “The SPR” for “Measurements were conducted by SPR and ELISA. SPR”, “length human, mouse, rat and cynomolgus monkey serum” for “length HSA or mouse”, “albumin were” for “albumin was”

[8] = molecular target: T3, rat serum albumin (rat SA), full length (rat, UniProt P02770 25-608); assay: SPR kinetics, immobilized albumin, 1:1 fit, 37 C
T3 construct: mature; Immobilized on CM5 chip (SPR); also called RSA
Protocol: as §1, with “The SPR” for “Measurements were conducted by SPR and ELISA. SPR”, “length human, mouse, rat and cynomolgus monkey serum” for “length HSA or mouse”, “albumin were” for “albumin was”

[9] = molecular target: T4, cynomolgus monkey serum albumin (cynoSA), full length (cynomolgus monkey, UniProt A2V9Z4 25-608); assay: SPR kinetics, immobilized albumin, 1:1 fit, 37 C
T4 construct: mature; Immobilized on CM5 chip (SPR); the cynoSA experiment used a different Biacore chip; also called CySA
Protocol: as §1, with “The SPR” for “Measurements were conducted by SPR and ELISA. SPR”, “length human, mouse, rat and cynomolgus monkey serum” for “length HSA or mouse”, “albumin were” for “albumin was”

[10] = molecular target: T2, human serum albumin (HSA), full length; assay: SPR off-rate, immobilized HSA, 500 nM Adnectin, 25 C
Protocol: as §1

[11] = molecular target: T1, mouse serum albumin (MSA), full length; assay: SPR off-rate, immobilized MSA, 500 nM Adnectin, 25 C
Protocol: as §1

[12] = molecular target: T2, human serum albumin (HSA), full length; assay: SPR kinetics (Biacore, CM5): albumin immobilised, Adnectin concentration series as analyte, 37 C, 1:1 binding fit; curve Fc=2-1 [panel HSA]
Protocol: as §1, with “The SPR” for “Measurements were conducted by SPR and ELISA. SPR”, “length human, mouse, rat and cynomolgus monkey serum” for “length HSA or mouse”, “albumin were” for “albumin was”

[13] = molecular target: T1, mouse serum albumin (MSA), full length; assay: SPR kinetics (Biacore, CM5): albumin immobilised, Adnectin concentration series as analyte, 37 C, 1:1 binding fit; curve Fc=3-1 [panel MSA]
Protocol: as §1, with “The SPR” for “Measurements were conducted by SPR and ELISA. SPR”, “length human, mouse, rat and cynomolgus monkey serum” for “length HSA or mouse”, “albumin were” for “albumin was”

[14] = molecular target: T3, rat serum albumin (rat SA), full length; assay: SPR kinetics (Biacore, CM5): albumin immobilised, Adnectin concentration series as analyte, 37 C, 1:1 binding fit; curve Fc=4-1 [panel Rat SA]
Protocol: as §1, with “The SPR” for “Measurements were conducted by SPR and ELISA. SPR”, “length human, mouse, rat and cynomolgus monkey serum” for “length HSA or mouse”, “albumin were” for “albumin was”

[15] = molecular target: T4, cynomolgus monkey serum albumin …; assay: SPR kinetics (Biacore, CM5): ligand '15ug/ml CynoSA in Acetate 5.0' immobilised, Adnectin concentration series as analyte, 37 C, 1:1 binding fit; curve Fc=2-1 [panel Cyno SA]
Protocol: as §1, with “The SPR” for “Measurements were conducted by SPR and ELISA. SPR”, “length human, mouse, rat and cynomolgus monkey serum” for “length HSA or mouse”, “albumin were” for “albumin was”

[16] = molecular target: T2, human serum albumin (HSA), full length; assay: SPR off-rate ratio to parent ADX_7016_A01, HSA, 25 C
Protocol: as §1

[17] = molecular target: T1, mouse serum albumin (MSA), full length; assay: SPR off-rate ratio to parent ADX_7016_A01, MSA, 25 C
Protocol: as §1

[18] = molecular target: T4, cynomolgus monkey serum albumin …; assay: SPR kinetics (Biacore, CM5): ligand '15ug/ml CynoSA in Acetate5.0' immobilised, Adnectin concentration series as analyte, 37 C, 1:1 binding model; curve Fc=2-1 [panel Cyno SA]
Protocol: as §1, with “The SPR” for “Measurements were conducted by SPR and ELISA. SPR”, “length human, mouse, rat and cynomolgus monkey serum” for “length HSA or mouse”, “albumin were” for “albumin was”

[19] = molecular target: T1, mouse serum albumin (MSA), full length; assay: direct binding ELISA, coated MSA, anti-His-HRP
Protocol: Direct binding ELISA assays were conducted as follows. Full length human and murine serum albumin at 10ug/ml in PBS were coated on Nunc Maxisorp plates overnight at 4° C. Plates were blocked in casein/PBS buffer. PKE Adnectins were allowed to bind over a 4-point concentration range of 0.032-4 uM for HSA and 0.008-1 uM for MSA. Bound Adnectin was detected by anti-His antibody conjugated with HRP (horseradish peroxidase) diluted 1:1500 in casein/PBS. Plates were developed with TMB substrate and absorbance read at 450 nm. Adnectins were binned as high, medium and low affinity binders based on the observed Ymax of the concentration response curves.

[20] = molecular target: T4, cynomolgus monkey serum albumin …; assay: SPR kinetics (Biacore, CM5): ligand '15ug/ml CynoSA in Acetate 5.0' immobilised, Adnectin concentration series as analyte, 37 C, 1:1 binding model; curve Fc=2-1 [panel Cyno SA]
Protocol: as §1, with “The SPR” for “Measurements were conducted by SPR and ELISA. SPR”, “length human, mouse, rat and cynomolgus monkey serum” for “length HSA or mouse”, “albumin were” for “albumin was”

T4 sequence (A2V9Z4 25-608): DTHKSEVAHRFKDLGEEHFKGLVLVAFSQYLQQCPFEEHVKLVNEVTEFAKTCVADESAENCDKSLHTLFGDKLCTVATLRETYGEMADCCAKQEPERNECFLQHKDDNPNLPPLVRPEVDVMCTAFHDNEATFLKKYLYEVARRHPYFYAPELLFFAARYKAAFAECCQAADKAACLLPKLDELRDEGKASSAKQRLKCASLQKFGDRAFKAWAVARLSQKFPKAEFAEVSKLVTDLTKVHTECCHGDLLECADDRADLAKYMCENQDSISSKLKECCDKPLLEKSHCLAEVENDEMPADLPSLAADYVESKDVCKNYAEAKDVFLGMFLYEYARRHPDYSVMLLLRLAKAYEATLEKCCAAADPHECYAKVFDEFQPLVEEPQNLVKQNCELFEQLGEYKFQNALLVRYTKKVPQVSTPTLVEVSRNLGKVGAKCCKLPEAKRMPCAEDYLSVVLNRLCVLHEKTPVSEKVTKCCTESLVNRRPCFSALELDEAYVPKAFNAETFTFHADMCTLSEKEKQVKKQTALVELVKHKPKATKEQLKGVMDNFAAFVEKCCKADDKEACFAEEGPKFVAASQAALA
T3 sequence (P02770 25-608): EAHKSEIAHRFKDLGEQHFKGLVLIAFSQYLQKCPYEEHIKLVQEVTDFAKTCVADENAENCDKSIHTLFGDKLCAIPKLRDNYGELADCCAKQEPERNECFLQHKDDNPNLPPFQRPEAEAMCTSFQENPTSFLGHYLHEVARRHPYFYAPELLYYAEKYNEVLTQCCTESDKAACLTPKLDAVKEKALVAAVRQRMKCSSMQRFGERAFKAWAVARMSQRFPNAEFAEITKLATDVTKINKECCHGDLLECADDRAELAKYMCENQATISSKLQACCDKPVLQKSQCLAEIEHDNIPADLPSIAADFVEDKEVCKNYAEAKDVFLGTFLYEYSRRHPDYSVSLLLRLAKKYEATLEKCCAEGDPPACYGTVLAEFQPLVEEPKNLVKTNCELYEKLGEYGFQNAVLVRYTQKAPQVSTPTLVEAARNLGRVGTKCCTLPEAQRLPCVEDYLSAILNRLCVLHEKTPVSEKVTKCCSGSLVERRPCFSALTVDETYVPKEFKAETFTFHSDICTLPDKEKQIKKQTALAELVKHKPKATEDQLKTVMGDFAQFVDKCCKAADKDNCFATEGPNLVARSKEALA
T2 sequence (P02768 25-609): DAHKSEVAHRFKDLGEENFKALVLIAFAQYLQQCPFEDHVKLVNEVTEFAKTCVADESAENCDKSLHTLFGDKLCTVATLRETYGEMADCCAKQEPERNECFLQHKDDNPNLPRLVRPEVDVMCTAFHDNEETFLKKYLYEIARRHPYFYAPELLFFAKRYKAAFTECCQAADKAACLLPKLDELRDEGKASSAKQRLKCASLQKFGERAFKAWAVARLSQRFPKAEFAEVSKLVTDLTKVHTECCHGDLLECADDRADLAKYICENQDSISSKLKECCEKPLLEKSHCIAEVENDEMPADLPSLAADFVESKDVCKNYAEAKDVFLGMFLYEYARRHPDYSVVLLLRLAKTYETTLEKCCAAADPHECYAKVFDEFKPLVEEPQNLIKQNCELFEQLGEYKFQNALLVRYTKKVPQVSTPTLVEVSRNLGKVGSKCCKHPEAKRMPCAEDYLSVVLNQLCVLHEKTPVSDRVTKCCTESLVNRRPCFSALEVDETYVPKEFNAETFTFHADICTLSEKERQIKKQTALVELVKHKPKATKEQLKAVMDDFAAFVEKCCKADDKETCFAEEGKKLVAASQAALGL

| Binder | HSA Binding (RU) [4] [RU] | MSA Binding (RU) [5] [RU] | Kd [6] [nM] | koff [6] [s⁻¹] | kon [6] [M⁻¹ s⁻¹] | Kd [7] [nM] | koff [7] [s⁻¹] | kon [7] [M⁻¹ s⁻¹] | Kd [8] [nM] | koff [8] [s⁻¹] | kon [8] [M⁻¹ s⁻¹] | Kd [9] [nM] | koff [9] [s⁻¹] | kon [9] [M⁻¹ s⁻¹] | koff [10] [s⁻¹] | koff [11] [s⁻¹] | HSA kd/Parent kd [16] | MSA kd/Parent kd [17] | also measured |
| --- | --- | --- | --- | --- | --- | --- | --- | --- | --- | --- | --- | --- | --- | --- | --- | --- | --- | --- | --- |
| B1 |  |  |  |  |  |  |  |  |  |  |  |  |  |  |  |  |  |  | MSA DB ELISA (OD450) Ymax obs [1]: 100; MSA DB ELISA (OD450) Ymin obs [1]: 3 |
| B2 | 54 | 95 | 6.2 | 0.000378 | 61200 | 2.8 | 0.000668 | 237000 | 8 | 0.00143 | 180000 | 4.4 | 0.000391 | 89400 | 0.000269 | 0.000428 |  |  | Kd [2]: 3 to 6 nM; Kd [3]: 3 to 6 nM; koff [12]: 0.000378 s⁻¹; kon [12]: 61200 M⁻¹ s⁻¹; koff [13]: 0.000668 s⁻¹; kon [13]: 237000 M⁻¹ s⁻¹; koff [14]: 0.00143 s⁻¹; kon [14]: 180000 M⁻¹ s⁻¹; Kd [15]: 4.38 nM; koff [15]: 0.000391 s⁻¹; kon [15]: 89400 M⁻¹ s⁻¹ |
| B3 | 33 | 64 | 83.7 | 0.0032 | 38200 | 26.8 | 0.00629 | 235000 | 104 | 0.0346 | 331000 | 68.1 | 0.00426 | 62500 | 0.0015 | 0.00213 | 5.6 | 5 | Kd [18]: 68.1 nM; koff [18]: 0.00426 s⁻¹; kon [18]: 62500 M⁻¹ s⁻¹ |
| B4 | 25 | 30 | 666 | 0.0161 | 24200 | 502 | 0.0343 | 68400 | 1130 | 0.0558 | 49400 | 1430 | 0.171 | 119000 | 0.00815 | 0.0248 | 30.3 | 57.8 | MSA DB ELISA YMIN OBS (OD450) [19]: 1 OD450; Kd [20]: 1430 nM; koff [20]: 0.171 s⁻¹; kon [20]: 119000 M⁻¹ s⁻¹ |
